This assay addresses T1, human GPC-3 on cells (SK Hep1:hGPC-3 transfectants; HepG2) (human, UniProt P51654 25-554).
T1 construct: whole, on cells; The same molecule is used for the transfected SK-Hep1 cells and the GPC-3 positive HepG2 cells; The cell line is named under assay; also called Glypican-3
In words: confocal microscopy, cell surface staining of SK Hep1:hGPC-3 cells. As for the experimental part: Incubation of SK Hep1:hGPC-3 and SK Hep1:EV (empty vector control) and HepG2 cells with hNGAL muteins (SEQ ID NOs: 1-6) and staining of GPC-3 and bound hNGAL muteins followed by confocal microscopy. Cells (SK Hep1:GPC-3, SK Hep1:EV or HepG2) were grown at 37° in a humidified CO2 incubator for 24 hrs and exposed to hNGAL muteins 1.0 ug/mL, fixed (4% PFA in PBS) and stained with a rabbit anti-lipocalin antibody overnight at 4° C. prior to addition of secondary donkey anti-rabbit AF568 antibody. For nuclei staining, cells were incubated in 300 uL of DAPI solution (1:50000 DAPI in PBS). Slides were viewed using Leica TCS SP5 DNI6000 CS Confocal Microscope (Leica) using the following lasers. […] Results clearly indicate binding of ail hNGAL muteins (SEQ ID NOs: 2-6) to the cell lines expressing GPC-3 (presence of GPC-3 on the surface of the cells was also confirmed by confocal imaging) and lack of binding of such hNGAL muteins to control cell line (SK-Hep1:EV).

T1 sequence (P51654 25-554 limits assumed): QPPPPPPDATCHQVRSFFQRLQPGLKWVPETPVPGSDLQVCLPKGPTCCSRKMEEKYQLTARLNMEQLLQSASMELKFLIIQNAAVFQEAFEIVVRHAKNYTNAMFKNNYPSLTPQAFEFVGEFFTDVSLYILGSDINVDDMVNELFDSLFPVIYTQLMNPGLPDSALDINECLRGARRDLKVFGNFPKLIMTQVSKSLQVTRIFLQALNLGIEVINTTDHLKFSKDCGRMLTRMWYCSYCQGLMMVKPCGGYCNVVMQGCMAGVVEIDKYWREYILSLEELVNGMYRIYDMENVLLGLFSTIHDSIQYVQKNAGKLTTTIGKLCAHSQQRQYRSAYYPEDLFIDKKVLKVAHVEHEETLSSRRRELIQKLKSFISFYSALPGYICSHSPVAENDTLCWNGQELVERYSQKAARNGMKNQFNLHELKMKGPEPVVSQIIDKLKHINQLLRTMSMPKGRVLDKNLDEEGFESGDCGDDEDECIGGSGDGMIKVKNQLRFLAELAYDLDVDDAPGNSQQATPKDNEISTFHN

B1: lipocalin control (SEQ ID NO: 1) (other)
chain: QDSTSDLIPAPPLSKVPLQQNFQDNQFHGKWYVVGLAGNAILREDKDPQKMYATIYELKEDKSYNVTSVLFRKKKCDYWIRTFVPGSQPGEFTLGNIKSYPGLTSYLVRVVSTNYNQHAMVFFKKVSQNREYFKITLYGRTKELTSELKENFIRFSKSLGLPENHIVFPVPIDQCIDG
notes: also called mature human Lipocalin 2; mature hNGAL
Regarding B1, the binding result was “no binding (tested: 1.0 ug/mL)”.
